The source of these data is patent US20260209346A1 (LTZ THERAPEUTICS, published 2026).

The target in test [1] is CD79b endogenously expressed on the cell surface (malignant B cell lines, normal B cells in PBMC, CLL patients' B lymphocytes) (human) (UniProt P40259). The test is described as follows: flow cytometry on BJAB cells; anti-human IgG1-PE; MFI (PE); table under the graph; fit of a flat control curve. In general terms: A flow cytometer gives signals particle by particle.
Test [2] has the same target. Briefly: flow cytometry on SU-DHL-4 cells; anti-human IgG1-PE; MFI (PE); table under the graph; fit of a flat control curve.
The target is the same in test [3]. The test is described as follows: flow cytometry on Ramos cells; anti-human IgG1-PE; MFI (PE); table under the graph; fit of a flat control curve.
For test [4] the target is unchanged. The test is described as follows: flow cytometry on Nalm-6 cells; anti-human IgG1-PE; MFI (PE); table under the graph; fit of a flat control curve.
Test [5] has the same target. The test is described as follows: flow cytometry on PBMC of Donor 2890, B cells marked with CD19-BV421; anti-human IgG1-PE; MFI (PE); table under the graph; fit of a flat control curve.
Test [6] shares this target. The test is described as follows: flow cytometry quadrant plot, untransfected NALM6 cells; Anti-CD79b-PE against Anti-IgM-APC.
The target in test [7] is T1, CD79b endogenously expressed on the cell surface (malignant B cell lines, normal B cells in PBMC, CLL … (human, UniProt P40259 29-229)).
T1 construct: whole, on cells; On cells CD79b stands in the B-cell receptor complex with CD79a and surface Ig; also called cell surface CD79b; endogenous CD79b
T1 sequence (looked up): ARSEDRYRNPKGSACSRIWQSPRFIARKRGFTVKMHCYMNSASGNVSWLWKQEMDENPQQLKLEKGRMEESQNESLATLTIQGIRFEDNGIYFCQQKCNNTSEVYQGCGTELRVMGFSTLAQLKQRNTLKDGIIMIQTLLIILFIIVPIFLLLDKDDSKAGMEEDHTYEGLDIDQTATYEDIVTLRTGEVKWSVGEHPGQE
The test is described as follows: flow cytometry on PBMC of Donor 2890, B cells marked with CD19-BV421; anti-human IgG1-PE; MFI (PE); table under the graph. The method, then: (§1) The binding affinities of anti-CD79b antibodies to endogenous B cells were tested. […] The cells were then incubated with […] mixture of anti-human IgG1-PE (Invitrogen, Cat #: 12-4998-82), 1:1000 dilution; CD19-BV421 (Biolegend, Cat #:302230, 1:400 dilution) for 30 min on ice, and washed with 200 ul PBS for three times before flow cytometry analysis.

The target of test [8] is T1, CD79b endogenously expressed on the …. Briefly: flow cytometry on SU-DHL-4 cells; anti-human IgG1-PE; MFI (PE); table under the graph. Here is the method: (§2) The binding affinities of anti-CD79b antibodies to malignant B cell lines were tested. […] The cells were then incubated with 100 μl anti-human IgG1-PE (Invitrogen, cat: 12-4998-82), 1:1000 dilution, for 30 min on ice, washed with 200 ul PBS for three times before flow cytometry analysis.

Test [9] shares this target. The test is described as follows: flow cytometry on a cell line expressing endogenous CD79b (not named on the sheet or in the text); MFI (PE).
For test [10], the target named is T2, human CD79b recombinant protein (human, UniProt P40259 29-159).
T2 construct: also called human CD79b ECD antigen; recombinant human CD79b ECD
T2 sequence: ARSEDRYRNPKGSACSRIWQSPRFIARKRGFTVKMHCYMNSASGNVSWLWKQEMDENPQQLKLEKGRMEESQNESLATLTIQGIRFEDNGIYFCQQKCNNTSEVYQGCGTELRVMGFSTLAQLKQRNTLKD
Briefly: ELISA on recombinant human CD79b ECD; A 450nm. In general terms: ELISA stands for enzyme-linked immunosorbent assay.

The target of test [11] is T1, CD79b endogenously expressed on the …. Briefly: flow cytometry on PBMC of Donor 889, B cells marked with CD19-BV421; anti-human IgG1-PE; MFI (PE); table under the graph. Here is the method: as §1
Test [12] has as its target T3, cynomolgus CD79b recombinant protein (cynomolgus).
T3 chain: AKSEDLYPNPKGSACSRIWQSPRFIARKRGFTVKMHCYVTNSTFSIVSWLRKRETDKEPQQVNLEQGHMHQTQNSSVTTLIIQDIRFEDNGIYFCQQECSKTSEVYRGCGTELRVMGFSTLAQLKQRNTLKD
Briefly: ELISA, coated cynomolgus CD79b recombinant protein. The method, then:
(§3) Binding affinities of anti-CD79b antibodies to human and cynomolgus CD79b recombinant proteins were tested by ELISA. 1 ug/ml (in PBS buffer) of human or cynomolgus CD79b recombinant proteins were coated on an ELISA plate overnight. ELISA plates were washed and blocked with blocking buffer (PBS+1% BSA) followed by incubation with serially diluted anti-CD79b primary antibodies. Anti-CD79b antibody binding was quantified using an anti-human IgG HRP secondary antibody (Biolegend Catalog #410902) and HRP substrate.

For test [13], the target named is T2, human CD79b recombinant protein. The test is described as follows: BLI, antibody captured on anti-human IgG Fc probes, human CD79b in solution, 1:1 model. The method, then: (§4) Binding affinities of anti-CD79b antibodies to human CD79b recombinant proteins were tested by BLI. 10 ug/ml of anti-CD79b antibodies were captured by anti-human IgG Fc probes (Gator Bio Catalog #160024). […] Absolute kD was determined by applying a 1:1 binding model (Global Rmax unlinked).
(In general: In BLI a coated tip is dipped into the sample, and binding shifts an interference pattern.)

The target of test [14] is T1, CD79b endogenously expressed on the …. The test is described as follows: flow cytometry on Nalm-6 cells; anti-human IgG1-PE; MFI (PE); table under the graph. Here is the method: as §2
Test [15] has the same target. Briefly: flow cytometry on PBMC of Donor 2235, B cells marked with CD19-BV421; anti-human IgG1-PE; MFI (PE); table under the graph. Here is the method: as §1
The target in test [16] is T2, human CD79b recombinant protein. The test is described as follows: BLI; antibody at 10 ug/ml captured on anti-human IgG Fc probes, hCD79b in solution; same value printed in the rows for 18.3 and 9.14 nM hCD79b. Here is the method: as §4
Test [17] deals with T1, CD79b endogenously expressed on the …. The test is described as follows: flow cytometry on BJAB cells; anti-human IgG1-PE; MFI (PE); table under the graph. Here is the method: as §2
The target is the same in test [18]. Briefly: flow cytometry on Daudi cells; anti-human IgG1-PE; MFI (PE); table under the graph. Here is the method:
as §2

Test [19] has the same target. Briefly: flow cytometry on PBMC of CLL Donor 0255 (B lymphocytes); PE goat anti-human IgG Fc; MFI PE. The method, then: To determine the binding affinities of the anti-CD79b antibodies to cell surface CD79b on Chronic Lymphocytic Leukemia (CLL) patient's B lymphocytes, a cell-based binding assay was conducted. […] CLL patient PBMCs were purchased from the company Bioscience. […] Specifically, 2.5×10⁴ PBMC cells in 50 μl FACS buffer (1×PBS+2% BSA+2 mM EDTA) were seeded in each well of a V bottom 96-well plate. […] The mixture was incubated on ice for 30 minutes, and then washed twice with FACS buffer. The cells were re-suspended in 100 μl FACS buffer containing PE conjugated goat anti-human IgG Fc (1:1000) and anti-human CD19 (BV421), and incubated for 30 minutes on ice in darkness. After washing twice with FACS buffer, the cells were re-suspended in 100 μl of FACS buffer and analyzed with a Cytek cytometer.

For test [20] the target is unchanged. The test is described as follows: flow cytometry on Ramos cells; anti-human IgG1-PE; MFI (PE); table under the graph. The method, then:
as §2

Test [21] has the same target. The test is described as follows: flow cytometry on PBMC of Donor 356, B cells marked with CD19-BV421; anti-human IgG1-PE; MFI (PE); table under the graph. Here is the method: as §1
Test [22] has as its target T2, human CD79b recombinant protein. The test is described as follows: ELISA, coated human CD79b recombinant protein. Here is the method:
as §3

Regarding IgG1 control (antibody), the EC50 in test [1] is 0.04 nM; in test [2], 0.17 nM; in test [3], 0.01 nM; in test [4] it was 8.17 nM; in test [5] it was 0.163 nM.

As for Isotype (antibody), in test [6], the Q3 (percent of cells Anti-CD79b-PE positive, Anti-IgM-APC negative) came to 1.16.

B1: ch23D8 (antibody, human IgG1, kappa, V domains shown)
VH: QSLEESGGGLVTPGGTLTLTCTVSGLSLSSNAINWVRQAPGKGLEWIGMIYSGGRIEYASWAKGRFTISKTSTTVDLKITSPTTEDTATYFCAKGMSPSAHSSDIWGPGTLVTVSA
VL: AYDMTQTPASVEVAVGGTVTIKCQASQSISDNLSWYQQKPGQPPKLLIYDASDLASGVPSRFSGSGSGTEFTLTISDLEPADAATYYCQQDWISSNVDNTFGGGTEVVVKR
notes: Rabbit/human chimeric IgG1 kappa; also called chimeric 23D8
As to B1, the EC50 amounted to 1.05 nM in test [7]; 0.93 nM in test [8]; 0.15 nM in test [11]; 4.58 nM in test [14]; 0.921 nM in test [15]; 1.06 nM in test [17]. Besides, the figures for the EC50 in test [18], in test [20] and in test [21] were 1.08 nM, 1.4 nM and 0.225 nM, respectively. Also, the “EC50 (read off the curve)” value in [9] was about 0.3 nM; in [10], about 0.1 nM; in [19] it was about 0.9 nM. The IC50 was 0.57 nM in test [12] and 0.33 nM in test [22]. Moreover, in test [13], the Kd was found to be 0.32 nM. Further, the koff in [16] is 7.85e-05 s⁻¹. Besides, the kon in [16] came out at 245000 M⁻¹ s⁻¹.

B2: ch48H10 (antibody, human IgG1, kappa, V domains shown)
VH: QSVKETGGGLVQPGGSLTLSCKASGFTINIDYWISWVRQAPGKGLEWIGIIDPGDGTTYFAIWVSGRFTISTDNAQNTVDLQMNSLTAADTATYFCAREFSASAYQYDLWGPGTLVTVSS
VL: ALVMTQTPSSVSAAVGGTVSINCQASEDIESYLTWYQQKPGQPPKLLMYRASTLSSGVSSRFSASGSGTEFTLTISGVQPDDAATYYCQQGYRNKDVDNPFGGGTEVVVKR
notes: Rabbit/human chimeric IgG1 kappa; also called chimeric 48H10
Turning to B2, the EC50 stood at 1.17 nM in [7]; 0.98 nM in test [8]; 0.154 nM in test [11]; 2.69 nM in test [14]; 0.272 nM in test [15]; 0.98 nM in test [17]. Moreover, the EC50 in [18] turned out to be 1.38 nM; in [20], 1.32 nM; in test [21], 0.446 nM. Besides, the “EC50 (read off the curve)” value is about 0.4 nM in [9], about 0.3 nM in test [10] and about 0.9 nM in test [19]. Besides, the values for the IC50 in test [12] and in test [22] were 65.3 nM and 0.6 nM, respectively. Moreover, the Kd in test [13] stood at 0.0314 nM. The koff in test [16] worked out at 1.09e-05 s⁻¹. Also, the kon in test [16] was determined as 346000 M⁻¹ s⁻¹.

By EC50 is commonly meant the midpoint of the concentration-response curve. A higher EC50 goes with weaker potency. The EC50 (read off the curve) is the midpoint of the concentration-response curve. The term IC50 denotes the concentration at which inhibition is half-maximal. For orientation: Kd means the constant that tells how readily two partners part at equilibrium. The term koff denotes a measure of how fast the partners let go of each other. A word on the kon: it is the rate constant with which the complex forms.
